# Test results published in patent publication US20190324040A1.
# B1: CC17 mAb (P1F12) (antibody, V domains shown)
# VH: QVQLVQSGGGLVQPGGSLRLSCAASGFTFSSYWMSWVRQAPGKGLEWVANIKQDGSEKYYVDSVKGRFTISRDNAKNSLYLQMNSLRAEDTAVYYCAGNGWDDSSGYYYRNYYYGMDVWGQGTTVTVSS
# VL: DIQMTQSPSSFSASTGDRVTITCRASQGISSYLAWYQQKPGKAPKLLIYAASTLQSGVPSRFSGSGSGTDFTLTISCLQSEDFATYYCQQYYSYPRTFGGGTKVDIK
# Key:
# [1] = molecular target: Zika virus (ZIKV), whole virus particles (Zika virus); experiment: P1F12-ZIKV binding inhibition ELISA (4G2-captured ZIKV); competitor: 1/10 plasma of donor 3004 (ZIKV+)
# [2] = molecular target: Zika virus (ZIKV), whole virus particles (Zika virus); experiment: P1F12-ZIKV binding inhibition ELISA (4G2-captured ZIKV); competitor: 1/10 plasma of donor hu004 (ZIKV+)
# [3] = molecular target: Zika virus (ZIKV), whole virus particles (Zika virus); experiment: P1F12-ZIKV binding inhibition ELISA (4G2-captured ZIKV); competitor: 1/10 plasma of donor 515 (naive)
# [4] = molecular target: Zika virus (ZIKV), whole virus particles (Zika virus); experiment: P1F12-ZIKV binding inhibition ELISA (4G2-captured ZIKV); competitor: 1/10 plasma of donor 3013 (ZIKV+)
# [5] = molecular target: Zika virus (ZIKV), whole virus particles (Zika virus); experiment: P1F12-ZIKV binding inhibition ELISA (4G2-captured ZIKV); competitor: 1/10 plasma of donor Class 9 (U.S. naive)
# [6] = molecular target: Zika virus (ZIKV), whole virus particles (Zika virus); experiment: P1F12-ZIKV binding inhibition ELISA (4G2-captured ZIKV); competitor: 1/10 plasma of donor 3012 (ZIKV+)
# [7] = molecular target: Zika virus (ZIKV), whole virus particles (Zika virus); experiment: P1F12-ZIKV binding inhibition ELISA (4G2-captured ZIKV); competitor: 1/10 plasma of donor 177 (DENV+)
# [8] = molecular target: Zika virus (ZIKV), whole virus particles (Zika virus); experiment: P1F12-ZIKV binding inhibition ELISA (4G2-captured ZIKV); competitor: 1/10 plasma of donor Class 11 (U.S. naive)
# [9] = molecular target: Zika virus (ZIKV), whole virus particles (Zika virus); experiment: P1F12-ZIKV binding inhibition ELISA (4G2-captured ZIKV); competitor: 1/10 plasma of donor 1252 (DENV+)
# [10] = molecular target: Zika virus (ZIKV), whole virus particles (Zika virus); experiment: P1F12-ZIKV binding inhibition ELISA (4G2-captured ZIKV); competitor: 1/10 plasma of donor 1261 (naive)
# [11] = molecular target: Zika virus (ZIKV), whole virus particles (Zika virus); experiment: P1F12-ZIKV binding inhibition ELISA (4G2-captured ZIKV); competitor: 1/10 plasma of donor 1208 (DENV+)
# [12] = molecular target: Zika virus (ZIKV), whole virus particles (Zika virus); experiment: P1F12-ZIKV binding inhibition ELISA (4G2-captured ZIKV); competitor: 1/10 plasma of donor Class 6 (U.S. naive)
# [13] = molecular target: Zika virus (ZIKV), whole virus particles (Zika virus); experiment: P1F12-ZIKV binding inhibition ELISA (4G2-captured ZIKV); competitor: 1/10 plasma of donor Class 4 (U.S. naive)
# [14] = molecular target: Zika virus (ZIKV), whole virus particles (Zika virus); experiment: P1F12-ZIKV binding inhibition ELISA (4G2-captured ZIKV); competitor: 1/10 plasma of donor Class 14 (U.S. naive)
# [15] = molecular target: Zika virus (ZIKV), whole virus particles (Zika virus); experiment: P1F12-ZIKV binding inhibition ELISA (4G2-captured ZIKV); competitor: 1/10 plasma of donor 1294 (DENV+)
# [16] = molecular target: Zika virus (ZIKV), whole virus particles (Zika virus); experiment: P1F12-ZIKV binding inhibition ELISA (4G2-captured ZIKV); competitor: 1/10 plasma of donor 1248 (DENV+)
# [17] = molecular target: Zika virus (ZIKV), whole virus particles (Zika virus); experiment: P1F12-ZIKV binding inhibition ELISA (4G2-captured ZIKV); competitor: 1/10 plasma of donor 1273 (naive)
# [18] = molecular target: Zika virus (ZIKV), whole virus particles (Zika virus); experiment: P1F12-ZIKV binding inhibition ELISA (4G2-captured ZIKV); competitor: 1/10 plasma of donor Class 3 (U.S. naive)
# [19] = molecular target: Zika virus (ZIKV), whole virus particles (Zika virus); experiment: P1F12-ZIKV binding inhibition ELISA (4G2-captured ZIKV); competitor: 1/10 plasma of donor Class 13 (U.S. naive)
# [20] = molecular target: Zika virus (ZIKV), whole virus particles (Zika virus); experiment: P1F12-ZIKV binding inhibition ELISA (4G2-captured ZIKV); competitor: 1/10 plasma of donor Class 7 (U.S. naive)
# [21] = molecular target: Zika virus (ZIKV), whole virus particles (Zika virus); experiment: P1F12-ZIKV binding inhibition ELISA (4G2-captured ZIKV); competitor: 1/10 plasma of donor 138 (DENV+)
# [22] = molecular target: Zika virus (ZIKV), whole virus particles (Zika virus); experiment: P1F12-ZIKV binding inhibition ELISA (4G2-captured ZIKV); competitor: 1/10 plasma of donor FA7006 (YF vaccine)
# [23] = molecular target: Zika virus (ZIKV), whole virus particles (Zika virus); experiment: cell-based or functional assay
# [24] = molecular target: Zika virus (ZIKV), whole virus particles (Zika virus); experiment: P1F12-ZIKV binding inhibition ELISA (4G2-captured ZIKV); competitor: 1/10 plasma of donor 1235 (DENV+)
# [25] = molecular target: Zika virus (ZIKV), whole virus particles (Zika virus); experiment: P1F12-ZIKV binding inhibition ELISA (4G2-captured ZIKV); competitor: 1/10 plasma of donor 184 (DENV+)
# [26] = molecular target: Zika virus (ZIKV), whole virus particles (Zika virus); experiment: P1F12-ZIKV binding inhibition ELISA (4G2-captured ZIKV); competitor: 1/10 plasma of donor 1280 (DENV+)
# [27] = molecular target: Zika virus (ZIKV), whole virus particles (Zika virus); experiment: P1F12-ZIKV binding inhibition ELISA (4G2-captured ZIKV); competitor: 1/10 plasma of donor 3002 (ZIKV+)
# [28] = molecular target: Zika virus (ZIKV), whole virus particles (Zika virus); experiment: P1F12-ZIKV binding inhibition ELISA (4G2-captured ZIKV); competitor: 1/10 plasma of donor FA2002 (YF vaccine)
# [29] = molecular target: Zika virus (ZIKV), whole virus particles (Zika virus); experiment: P1F12-ZIKV binding inhibition ELISA (4G2-captured ZIKV); competitor: 1/10 plasma of donor 168 (DENV+)
# [30] = molecular target: Zika virus (ZIKV), whole virus particles (Zika virus); experiment: P1F12-ZIKV binding inhibition ELISA (4G2-captured ZIKV); competitor: 1/10 plasma of donor 152 (DENV+)
# [31] = molecular target: Zika virus (ZIKV), whole virus particles (Zika virus); experiment: P1F12-ZIKV binding inhibition ELISA (4G2-captured ZIKV); competitor: 1/10 plasma of donor 507 (DENV+)
# [32] = molecular target: Zika virus (ZIKV), whole virus particles (Zika virus); experiment: P1F12-ZIKV binding inhibition ELISA (4G2-captured ZIKV); competitor: 1/10 plasma of donor Class 2 (U.S. naive)
# [33] = molecular target: Zika virus (ZIKV), whole virus particles (Zika virus); experiment: P1F12-ZIKV binding inhibition ELISA (4G2-captured ZIKV); competitor: 1/10 plasma of donor 1302 (ZIKV+)
# [34] = molecular target: Zika virus (ZIKV), whole virus particles (Zika virus); experiment: P1F12-ZIKV binding inhibition ELISA (4G2-captured ZIKV); competitor: 1/10 plasma of donor 802 (ZIKV+)
# [35] = molecular target: Zika virus (ZIKV), whole virus particles (Zika virus); experiment: P1F12-ZIKV binding inhibition ELISA (4G2-captured ZIKV); competitor: 1/10 plasma of donor 1255 (naive)
# [36] = molecular target: Zika virus (ZIKV), whole virus particles (Zika virus); experiment: P1F12-ZIKV binding inhibition ELISA (4G2-captured ZIKV); competitor: 1/10 plasma of donor Class 5 (U.S. naive)
# [37] = molecular target: Zika virus (ZIKV), whole virus particles (Zika virus); experiment: P1F12-ZIKV binding inhibition ELISA (4G2-captured ZIKV); competitor: 1/10 plasma of donor 3018 (ZIKV+)
# [38] = molecular target: Zika virus (ZIKV), whole virus particles (Zika virus); experiment: P1F12-ZIKV binding inhibition ELISA (4G2-captured ZIKV); competitor: 1/10 plasma of donor Class 12 (U.S. naive)
# [39] = molecular target: Zika virus (ZIKV), whole virus particles (Zika virus); experiment: P1F12-ZIKV binding inhibition ELISA (4G2-captured ZIKV); competitor: 1/10 plasma of donor Class 1 (U.S. naive)
# [40] = molecular target: Zika virus (ZIKV), whole virus particles (Zika virus); experiment: P1F12-ZIKV binding inhibition ELISA (4G2-captured ZIKV); competitor: 1/10 plasma of donor FA2004 (YF vaccine)
# [41] = molecular target: Zika virus (ZIKV), whole virus particles (Zika virus); experiment: P1F12-ZIKV binding inhibition ELISA (4G2-captured ZIKV); competitor: 1/10 plasma of donor Class 10 (U.S. naive)
# [42] = molecular target: Zika virus (ZIKV), whole virus particles (Zika virus); experiment: P1F12-ZIKV binding inhibition ELISA (4G2-captured ZIKV); competitor: 1/10 plasma of donor hu002 (U.S. naive)
# [43] = molecular target: Zika virus (ZIKV), whole virus particles (Zika virus); experiment: P1F12-ZIKV binding inhibition ELISA (4G2-captured ZIKV); competitor: 1/10 plasma of donor 12 (naive)
# [44] = molecular target: Zika virus (ZIKV), whole virus particles (Zika virus); experiment: P1F12-ZIKV binding inhibition ELISA (4G2-captured ZIKV); competitor: 1/10 plasma of donor FA2005 (YF vaccine)
# [45] = molecular target: Zika virus (ZIKV), whole virus particles (Zika virus); experiment: P1F12-ZIKV binding inhibition ELISA (4G2-captured ZIKV); competitor: 1/10 plasma of donor 533 (ZIKV+)
# [46] = molecular target: Zika virus (ZIKV), whole virus particles (Zika virus); experiment: P1F12-ZIKV binding inhibition ELISA (4G2-captured ZIKV); competitor: 1/10 plasma of donor 801 (ZIKV+)
# [47] = molecular target: Zika virus (ZIKV), whole virus particles (Zika virus); experiment: virus capture ELISA
# [48] = molecular target: Zika virus (ZIKV), whole virus particles (Zika virus); experiment: P1F12-ZIKV binding inhibition ELISA (4G2-captured ZIKV); competitor: 1/10 plasma of donor Class 8 (U.S. naive)
binder,measurement,setting,value
B1,P1F12-ZIKV inhibition assay (Abs450),[1],0.03 Abs450
same,P1F12-ZIKV inhibition assay (Abs450),[2],0.04 Abs450
same,P1F12-ZIKV inhibition assay (Abs450),[3],0.293 Abs450
same,P1F12-ZIKV inhibition assay (Abs450),[4],0.03 Abs450
same,P1F12-ZIKV inhibition assay (Abs450),[5],0.316 Abs450
same,P1F12-ZIKV inhibition assay (Abs450),[6],0.05 Abs450
same,P1F12-ZIKV inhibition assay (Abs450),[7],0.18 Abs450
same,P1F12-ZIKV inhibition assay (Abs450),[8],0.395 Abs450
same,P1F12-ZIKV inhibition assay (Abs450),[9],0.19 Abs450
same,P1F12-ZIKV inhibition assay (Abs450),[10],0.405 Abs450
same,P1F12-ZIKV inhibition assay (Abs450),[11],0.25 Abs450
same,P1F12-ZIKV inhibition assay (Abs450),[12],0.292 Abs450
same,P1F12-ZIKV inhibition assay (Abs450),[13],0.392 Abs450
same,P1F12-ZIKV inhibition assay (Abs450),[14],0.323 Abs450
same,P1F12-ZIKV inhibition assay (Abs450),[15],0.29 Abs450
same,P1F12-ZIKV inhibition assay (Abs450),[16],0.36 Abs450
same,P1F12-ZIKV inhibition assay (Abs450),[17],0.395 Abs450
same,P1F12-ZIKV inhibition assay (Abs450),[18],0.406 Abs450
same,P1F12-ZIKV inhibition assay (Abs450),[19],0.276 Abs450
same,P1F12-ZIKV inhibition assay (Abs450),[20],0.246 Abs450
same,P1F12-ZIKV inhibition assay (Abs450),[21],0.34 Abs450
same,P1F12-ZIKV inhibition assay (Abs450),[22],0.396 Abs450
same,"% of Zika virus Neutralized (Vero infectivity assay), antibody at 1 µg/ml",[23],82.3%
same,Neut50,[23],2 µg/mL
same,PRNT50 (plaque reduction neutralization test),[23],2 µg/mL
same,P1F12-ZIKV inhibition assay (Abs450),[24],0.18 Abs450
same,P1F12-ZIKV inhibition assay (Abs450),[25],0.26 Abs450
same,P1F12-ZIKV inhibition assay (Abs450),[26],0.29 Abs450
same,P1F12-ZIKV inhibition assay (Abs450),[27],0.04 Abs450
same,P1F12-ZIKV inhibition assay (Abs450),[28],0.319 Abs450
same,P1F12-ZIKV inhibition assay (Abs450),[29],0.32 Abs450
same,P1F12-ZIKV inhibition assay (Abs450),[30],0.15 Abs450
same,P1F12-ZIKV inhibition assay (Abs450),[31],0.28 Abs450
same,P1F12-ZIKV inhibition assay (Abs450),[32],0.312 Abs450
same,P1F12-ZIKV inhibition assay (Abs450),[33],0.62 Abs450
same,P1F12-ZIKV inhibition assay (Abs450),[34],0.05 Abs450
same,P1F12-ZIKV inhibition assay (Abs450),[35],0.323 Abs450
same,P1F12-ZIKV inhibition assay (Abs450),[36],0.389 Abs450
same,P1F12-ZIKV inhibition assay (Abs450),[37],0.04 Abs450
same,P1F12-ZIKV inhibition assay (Abs450),[38],0.344 Abs450
same,P1F12-ZIKV inhibition assay (Abs450),[39],0.323 Abs450
same,P1F12-ZIKV inhibition assay (Abs450),[40],0.393 Abs450
same,P1F12-ZIKV inhibition assay (Abs450),[41],0.315 Abs450
same,P1F12-ZIKV inhibition assay (Abs450),[42],0.57 Abs450
same,P1F12-ZIKV inhibition assay (Abs450),[43],0.22 Abs450
same,P1F12-ZIKV inhibition assay (Abs450),[44],0.332 Abs450
same,P1F12-ZIKV inhibition assay (Abs450),[45],0.03 Abs450
same,P1F12-ZIKV inhibition assay (Abs450),[46],0.04 Abs450
same,ZIKV binding Abs 450 nm,[47],0.17 Abs 450 nm
same,P1F12-ZIKV inhibition assay (Abs450),[48],0.303 Abs450
